# Reference: patent US20250304643A1 (BAINAN BIOTECH, published 2025)
# *1 amine or outer side, *2 acyl side, *3 side chain or, on linkers, in order; H or OH if unused. Where no end group is shown, it is not given here. Side-chain parts run from the residue outwards. [ ]: non-standard residue; d: D form. The star is where a group is joined. γGlu = O=C(O)[C@H](CCC(=O)[*:2])N[*:1]; Palmitoyl = CCCCCCCCCCCCCCCC(=O)*; Decanoyl = CCCCCCCCCC(=O)*; Aib = CC(C)(N)C(=O)O
# T1: human glucagon-like peptide-2 receptor (human, UniProt O95838 1-553)
# T1 sequence (looked up): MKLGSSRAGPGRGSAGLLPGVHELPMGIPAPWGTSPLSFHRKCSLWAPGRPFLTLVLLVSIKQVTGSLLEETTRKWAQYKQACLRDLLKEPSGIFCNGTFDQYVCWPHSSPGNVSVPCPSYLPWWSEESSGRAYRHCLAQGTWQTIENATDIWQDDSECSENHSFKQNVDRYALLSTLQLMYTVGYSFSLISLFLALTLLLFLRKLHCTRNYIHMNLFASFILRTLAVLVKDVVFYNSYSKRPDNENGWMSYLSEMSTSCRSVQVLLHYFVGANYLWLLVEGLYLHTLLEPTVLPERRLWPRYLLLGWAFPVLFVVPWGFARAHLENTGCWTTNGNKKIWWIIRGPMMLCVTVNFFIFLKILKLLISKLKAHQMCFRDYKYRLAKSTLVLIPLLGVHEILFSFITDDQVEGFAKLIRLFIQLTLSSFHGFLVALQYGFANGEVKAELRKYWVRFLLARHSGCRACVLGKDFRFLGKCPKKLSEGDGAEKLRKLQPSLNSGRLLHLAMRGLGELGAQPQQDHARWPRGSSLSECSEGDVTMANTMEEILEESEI
# T2: human glucose-dependent insulinotropic polypeptide receptor (human, UniProt P48546 22-466)
# T2 sequence (looked up): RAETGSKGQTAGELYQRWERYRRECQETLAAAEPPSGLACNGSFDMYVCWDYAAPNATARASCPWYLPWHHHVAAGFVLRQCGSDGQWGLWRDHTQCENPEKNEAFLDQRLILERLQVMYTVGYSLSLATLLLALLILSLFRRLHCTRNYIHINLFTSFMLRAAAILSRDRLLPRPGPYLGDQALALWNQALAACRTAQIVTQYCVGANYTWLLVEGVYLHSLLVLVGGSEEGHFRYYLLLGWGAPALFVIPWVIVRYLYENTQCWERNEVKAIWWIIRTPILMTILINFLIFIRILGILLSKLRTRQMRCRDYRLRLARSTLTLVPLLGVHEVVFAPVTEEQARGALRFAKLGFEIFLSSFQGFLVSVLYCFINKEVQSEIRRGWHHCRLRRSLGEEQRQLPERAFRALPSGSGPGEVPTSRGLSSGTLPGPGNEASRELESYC
# B1: Compound no. 32 (peptide)
# peptide: H[Aib]DGTFISDYK([γGlu-Palmitoyl])TILDNLAARDFINWLIETKITK-OH
# modifications: N-terminus assumed
# SMILES: CCCCCCCCCCCCCCCC(=O)N[C@@H](CCC(=O)NCCCC[C@H](NC(=O)[C@H](Cc1ccc(O)cc1)NC(=O)[C@H](CC(=O)O)NC(=O)[C@H](CO)NC(=O)[C@@H](NC(=O)[C@H](Cc1ccccc1)NC(=O)[C@@H](NC(=O)CNC(=O)[C@H](CC(=O)O)NC(=O)C(C)(C)NC(=O)[C@@H](N)Cc1c[nH]cn1)[C@@H](C)O)[C@@H](C)CC)C(=O)N[C@H](C(=O)N[C@H](C(=O)N[C@@H](CC(C)C)C(=O)N[C@@H](CC(=O)O)C(=O)N[C@@H](CC(N)=O)C(=O)N[C@@H](CC(C)C)C(=O)N[C@@H](C)C(=O)N[C@@H](C)C(=O)N[C@@H](CCCNC(=N)N)C(=O)N[C@@H](CC(=O)O)C(=O)N[C@@H](Cc1ccccc1)C(=O)N[C@H](C(=O)N[C@@H](CC(N)=O)C(=O)N[C@@H](Cc1c[nH]c2ccccc12)C(=O)N[C@@H](CC(C)C)C(=O)N[C@H](C(=O)N[C@@H](CCC(=O)O)C(=O)N[C@H](C(=O)N[C@@H](CCCCN)C(=O)N[C@H](C(=O)N[C@H](C(=O)N[C@@H](CCCCN)C(=O)O)[C@@H](C)O)[C@@H](C)CC)[C@@H](C)O)[C@@H](C)CC)[C@@H](C)CC)[C@@H](C)CC)[C@@H](C)O)C(=O)O
# B2: Compound no. 29 (peptide)
# peptide: H[Aib]DGTFISDYK([γGlu-Palmitoyl])T[Aib]LDNLAARDFINWLIQTKITK-OH
# modifications: N-terminus assumed
# SMILES: CCCCCCCCCCCCCCCC(=O)N[C@@H](CCC(=O)NCCCC[C@H](NC(=O)[C@H](Cc1ccc(O)cc1)NC(=O)[C@H](CC(=O)O)NC(=O)[C@H](CO)NC(=O)[C@@H](NC(=O)[C@H](Cc1ccccc1)NC(=O)[C@@H](NC(=O)CNC(=O)[C@H](CC(=O)O)NC(=O)C(C)(C)NC(=O)[C@@H](N)Cc1c[nH]cn1)[C@@H](C)O)[C@@H](C)CC)C(=O)N[C@H](C(=O)NC(C)(C)C(=O)N[C@@H](CC(C)C)C(=O)N[C@@H](CC(=O)O)C(=O)N[C@@H](CC(N)=O)C(=O)N[C@@H](CC(C)C)C(=O)N[C@@H](C)C(=O)N[C@@H](C)C(=O)N[C@@H](CCCNC(=N)N)C(=O)N[C@@H](CC(=O)O)C(=O)N[C@@H](Cc1ccccc1)C(=O)N[C@H](C(=O)N[C@@H](CC(N)=O)C(=O)N[C@@H](Cc1c[nH]c2ccccc12)C(=O)N[C@@H](CC(C)C)C(=O)N[C@H](C(=O)N[C@@H](CCC(N)=O)C(=O)N[C@H](C(=O)N[C@@H](CCCCN)C(=O)N[C@H](C(=O)N[C@H](C(=O)N[C@@H](CCCCN)C(=O)O)[C@@H](C)O)[C@@H](C)CC)[C@@H](C)O)[C@@H](C)CC)[C@@H](C)CC)[C@@H](C)O)C(=O)O
# B3: Compound no. 28 (peptide)
# peptide: H[Aib]DGK([γGlu-γGlu-Palmitoyl])FISDYST[Aib]LDNLAARDFINWLIQTKITK-OH
# modifications: N-terminus assumed
# SMILES: CCCCCCCCCCCCCCCC(=O)N[C@@H](CCC(=O)N[C@@H](CCC(=O)NCCCC[C@H](NC(=O)CNC(=O)[C@H](CC(=O)O)NC(=O)C(C)(C)NC(=O)[C@@H](N)Cc1c[nH]cn1)C(=O)N[C@@H](Cc1ccccc1)C(=O)N[C@H](C(=O)N[C@@H](CO)C(=O)N[C@@H](CC(=O)O)C(=O)N[C@@H](Cc1ccc(O)cc1)C(=O)N[C@@H](CO)C(=O)N[C@H](C(=O)NC(C)(C)C(=O)N[C@@H](CC(C)C)C(=O)N[C@@H](CC(=O)O)C(=O)N[C@@H](CC(N)=O)C(=O)N[C@@H](CC(C)C)C(=O)N[C@@H](C)C(=O)N[C@@H](C)C(=O)N[C@@H](CCCNC(=N)N)C(=O)N[C@@H](CC(=O)O)C(=O)N[C@@H](Cc1ccccc1)C(=O)N[C@H](C(=O)N[C@@H](CC(N)=O)C(=O)N[C@@H](Cc1c[nH]c2ccccc12)C(=O)N[C@@H](CC(C)C)C(=O)N[C@H](C(=O)N[C@@H](CCC(N)=O)C(=O)N[C@H](C(=O)N[C@@H](CCCCN)C(=O)N[C@H](C(=O)N[C@H](C(=O)N[C@@H](CCCCN)C(=O)O)[C@@H](C)O)[C@@H](C)CC)[C@@H](C)O)[C@@H](C)CC)[C@@H](C)CC)[C@@H](C)O)[C@@H](C)CC)C(=O)O)C(=O)O
# B4: Compound no. 26 (peptide)
# peptide: H[Aib]DGK([γGlu-γGlu-Decanoyl])FISDYSTILDNLAARDFINWLIQTKITK-OH
# modifications: N-terminus assumed
# SMILES: CCCCCCCCCC(=O)N[C@@H](CCC(=O)N[C@@H](CCC(=O)NCCCC[C@H](NC(=O)CNC(=O)[C@H](CC(=O)O)NC(=O)C(C)(C)NC(=O)[C@@H](N)Cc1c[nH]cn1)C(=O)N[C@@H](Cc1ccccc1)C(=O)N[C@H](C(=O)N[C@@H](CO)C(=O)N[C@@H](CC(=O)O)C(=O)N[C@@H](Cc1ccc(O)cc1)C(=O)N[C@@H](CO)C(=O)N[C@H](C(=O)N[C@H](C(=O)N[C@@H](CC(C)C)C(=O)N[C@@H](CC(=O)O)C(=O)N[C@@H](CC(N)=O)C(=O)N[C@@H](CC(C)C)C(=O)N[C@@H](C)C(=O)N[C@@H](C)C(=O)N[C@@H](CCCNC(=N)N)C(=O)N[C@@H](CC(=O)O)C(=O)N[C@@H](Cc1ccccc1)C(=O)N[C@H](C(=O)N[C@@H](CC(N)=O)C(=O)N[C@@H](Cc1c[nH]c2ccccc12)C(=O)N[C@@H](CC(C)C)C(=O)N[C@H](C(=O)N[C@@H](CCC(N)=O)C(=O)N[C@H](C(=O)N[C@@H](CCCCN)C(=O)N[C@H](C(=O)N[C@H](C(=O)N[C@@H](CCCCN)C(=O)O)[C@@H](C)O)[C@@H](C)CC)[C@@H](C)O)[C@@H](C)CC)[C@@H](C)CC)[C@@H](C)CC)[C@@H](C)O)[C@@H](C)CC)C(=O)O)C(=O)O
# B5: Compound no. 27 (peptide)
# peptide: H[Aib]EGK([γGlu-Palmitoyl])FISDYST[Aib]LDNLAARDFINWLIQTKITK-OH
# modifications: N-terminus assumed
# SMILES: CCCCCCCCCCCCCCCC(=O)N[C@@H](CCC(=O)NCCCC[C@H](NC(=O)CNC(=O)[C@H](CCC(=O)O)NC(=O)C(C)(C)NC(=O)[C@@H](N)Cc1c[nH]cn1)C(=O)N[C@@H](Cc1ccccc1)C(=O)N[C@H](C(=O)N[C@@H](CO)C(=O)N[C@@H](CC(=O)O)C(=O)N[C@@H](Cc1ccc(O)cc1)C(=O)N[C@@H](CO)C(=O)N[C@H](C(=O)NC(C)(C)C(=O)N[C@@H](CC(C)C)C(=O)N[C@@H](CC(=O)O)C(=O)N[C@@H](CC(N)=O)C(=O)N[C@@H](CC(C)C)C(=O)N[C@@H](C)C(=O)N[C@@H](C)C(=O)N[C@@H](CCCNC(=N)N)C(=O)N[C@@H](CC(=O)O)C(=O)N[C@@H](Cc1ccccc1)C(=O)N[C@H](C(=O)N[C@@H](CC(N)=O)C(=O)N[C@@H](Cc1c[nH]c2ccccc12)C(=O)N[C@@H](CC(C)C)C(=O)N[C@H](C(=O)N[C@@H](CCC(N)=O)C(=O)N[C@H](C(=O)N[C@@H](CCCCN)C(=O)N[C@H](C(=O)N[C@H](C(=O)N[C@@H](CCCCN)C(=O)O)[C@@H](C)O)[C@@H](C)CC)[C@@H](C)O)[C@@H](C)CC)[C@@H](C)CC)[C@@H](C)O)[C@@H](C)CC)C(=O)O
# B6: Compound no. 31 (peptide)
# peptide: H[Aib]DGTFISDYK([γGlu-Decanoyl])TILDKLAARDFIEWLIATKITK-OH
# modifications: N-terminus assumed
# SMILES: CCCCCCCCCC(=O)N[C@@H](CCC(=O)NCCCC[C@H](NC(=O)[C@H](Cc1ccc(O)cc1)NC(=O)[C@H](CC(=O)O)NC(=O)[C@H](CO)NC(=O)[C@@H](NC(=O)[C@H](Cc1ccccc1)NC(=O)[C@@H](NC(=O)CNC(=O)[C@H](CC(=O)O)NC(=O)C(C)(C)NC(=O)[C@@H](N)Cc1c[nH]cn1)[C@@H](C)O)[C@@H](C)CC)C(=O)N[C@H](C(=O)N[C@H](C(=O)N[C@@H](CC(C)C)C(=O)N[C@@H](CC(=O)O)C(=O)N[C@@H](CCCCN)C(=O)N[C@@H](CC(C)C)C(=O)N[C@@H](C)C(=O)N[C@@H](C)C(=O)N[C@@H](CCCNC(=N)N)C(=O)N[C@@H](CC(=O)O)C(=O)N[C@@H](Cc1ccccc1)C(=O)N[C@H](C(=O)N[C@@H](CCC(=O)O)C(=O)N[C@@H](Cc1c[nH]c2ccccc12)C(=O)N[C@@H](CC(C)C)C(=O)N[C@H](C(=O)N[C@@H](C)C(=O)N[C@H](C(=O)N[C@@H](CCCCN)C(=O)N[C@H](C(=O)N[C@H](C(=O)N[C@@H](CCCCN)C(=O)O)[C@@H](C)O)[C@@H](C)CC)[C@@H](C)O)[C@@H](C)CC)[C@@H](C)CC)[C@@H](C)CC)[C@@H](C)O)C(=O)O
# Biological target: T1, human glucagon-like peptide-2 receptor
# Assay: cell-based or functional assay
EC50 (nM) GLP-2R,Efficacy GLP-2R,logEC50 GLP-2R,Binder
10 nM,84%,8,B1
,124%,,B2
,99%,,B3
,91%,,B4
,108%,,B5
,90%,,B6

# Biological target: T2, human glucose-dependent insulinotropic …
# Assay: cell-based or functional assay
row,Efficacy GIPR,Binder
1,89%,B1
2,104%,B2
3,105%,B3
4,80%,B4
5,98%,B5
6,89%,B6
